This data set deals with the molecule itself. Briefly: NMR 15N R2 relaxation.

B1: HIF-1α PAS-B domain single mutant (R245E), construct 947 (domain or fragment)
chain: not shown
Regarding B1, the binding result is reported as “binds”.

For the origin of these results see PMC3376167 (The Journal of Physical Chemistry. B, 2012).
